Results taken from PMC5719442.

Columns and labels:
[1] = molecular target: AnPrx6, Prx6 (1-Cys peroxiredoxin) from Anabaena sp. strain PCC 7120 (Anabaena sp. PCC 7120); test: SAXS; 1.6 mg/ml and 4.8 mg/ml protein; mass from Hen Egg White Lysozyme standard and from Porod volume
[2] = molecular target: AnPrx6, Prx6 (1-Cys peroxiredoxin) from Anabaena sp. strain PCC 7120 (Anabaena sp. PCC 7120); test: SEC; analytical SEC at 0.1, 1 and 10 mg/ml protein, without or with 20 mM H2O2; BioRad Gel Filtration Standard

AnPrx6, Prx6 (1-Cys peroxiredoxin) from Anabaena sp. strain PCC 7120 (enzyme)
stoichiometry N [1]: 2 | stoichiometry N [2]: 2
